The record followed here is article PMC10330345 (2023).

B1: BTN2A1 271-527 (protein)
chain: KLQKEKKILSGEKEFERETREIALKELEKERVQKEEELQVKEKLQEEGRARRTFLHAVDVVLDPDTAHPDLFLSEDRRSVRRCPFRHLGESVPDNPERFDSQPCVLGRESFASGKHYWEVEVENVIEWTVGVCRDSVERKGEVLLIPQNGFWTLEMHKGQYRAVSSPDRILPLKESLCRVGVFLDYEAGDVSFYNMRDRSHIYTCPRSAFSVPVRPFFRLGCEDSPIFICPALTGANGVTVPEEGLTLHRVGTHQSL
B2: BTN2A1 271-527 (protein)
chain: KLQKEKKILSGEKEFERETREIALKELEKERVQKEEELQVKEKLQEELRARRTFLHAVDVVLDPDTAHPDLFLSEDRRSVRRCPFRHLGESVPDNPERFDSQPCVLGRESFASGKHYWEVEVENVIEWTVGVCRDSVERKGEVLLIPQNGFWTLEMHKGQYRAVSSPDRILPLKESLCRVGVFLDYEAGDVSFYNMRDRSHIYTCPRSAFSVPVRPFFRLGCEDSPIFICPALTGANGVTVPEEGLTLHRVGTHQSL
B3: BTN2A1 271-527 (protein)
chain: KLQKEKKILSGEKEFERETREIALKELEKERVQKEEELQVKEKLQEEGRWRRTFLHAVDVVLDPDTAHPDLFLSEDRRSVRRCPFRHLGESVPDNPERFDSQPCVLGRESFASGKHYWEVEVENVIEWTVGVCRDSVERKGEVLLIPQNGFWTLEMHKGQYRAVSSPDRILPLKESLCRVGVFLDYEAGDVSFYNMRDRSHIYTCPRSAFSVPVRPFFRLGCEDSPIFICPALTGANGVTVPEEGLTLHRVGTHQSL

The target of the assay is BTN3A1 272-513 (Homo sapiens, UniProt O00481). The assay is described as follows: ITC. On the technique in general: In ITC the heat of successive injections is recorded.
Sequence of BTN3A1 272-513 (O00481 272-513): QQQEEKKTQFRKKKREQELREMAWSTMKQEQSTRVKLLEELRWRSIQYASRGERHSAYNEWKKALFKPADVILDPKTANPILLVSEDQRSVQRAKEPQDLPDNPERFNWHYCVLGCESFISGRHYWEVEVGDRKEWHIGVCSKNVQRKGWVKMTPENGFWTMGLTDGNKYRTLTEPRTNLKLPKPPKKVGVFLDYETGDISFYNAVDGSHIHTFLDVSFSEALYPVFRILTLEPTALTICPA
Turning to B1, the affinity, expressed as Kd, was 710 nM.
The value for B2 was 670 nM.
To B3 belongs 1160 nM.
